In paper PMC11417369, “DNA sequence and chromatin differentiate sequence-specific transcription factor binding in the human malaria parasite Plasmodium falciparum”:

T1: AP2-G D1 (Plasmodium falciparum, UniProt Q8I5I9 2123-2245)
T1 sequence: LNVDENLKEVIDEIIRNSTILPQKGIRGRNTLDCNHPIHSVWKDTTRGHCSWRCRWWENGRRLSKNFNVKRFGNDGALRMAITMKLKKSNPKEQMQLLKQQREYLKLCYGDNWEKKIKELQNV

B1: XGTACX_site84 (dsDNA)
DNA 1: AATTAAATGGATAAATGTACATATGTGAATATATTT
DNA 2: AAATATATTCACATATGTACATTTATCCATTTAATT
B2: XGTACX_site2720 (dsDNA)
DNA 1: TCCTATTTTATATAATGTACATAAATATATTACATA
DNA 2: TATGTAATATATTTATGTACATTATATAAAATAGGA
B3: XGTACX_site4379 (dsDNA)
DNA 1: AATTAAATAAATGTATGTACATAATAAATATGTATT
DNA 2: AATACATATTTATTATGTACATACATTTATTTAATT
B4: XGTACX_site4915 (dsDNA)
DNA 1: AACGAAAACACTACGTGTACCAAACGTCCTACTAAC
DNA 2: GTTAGTAGGACGTTTGGTACACGTAGTGTTTTCGTT
B5: XGTACX_site894 (dsDNA)
DNA 1: AATAATGTTATAAATTGTACGTGTATTATTCATTAC
DNA 2: GTAATGAATAATACACGTACAATTTATAACATTATT
B6: XGTACX_site977 (dsDNA)
DNA 1: TTCAAATTGTTTATATGTACTTATAAAAATTGTCTG
DNA 2: CAGACAATTTTTATAAGTACATATAAACAATTTGAA
B7: XGTACX_site4551 (dsDNA)
DNA 1: ATATATATATATATTTGTACTTACATTTTTATTTAT
DNA 2: ATAAATAAAAATGTAAGTACAAATATATATATATAT
B8: XGTACX_site6680 (dsDNA)
DNA 1: TTTGTATATTATTTTAGTACATAACATTGAAGATAT
DNA 2: ATATCTTCAATGTTATGTACTAAAATAATATACAAA
B9: XGTACX_site8539 (dsDNA)
DNA 1: AAATAAAGTAAAATATGTACATAAATTAAAACACAT
DNA 2: ATGTGTTTTAATTTATGTACATATTTTACTTTATTT
B10: XGTACX_site3365 (dsDNA)
DNA 1: TATATGGGATATATGTGTACATATAAAATATGTATC
DNA 2: GATACATATTTTATATGTACACATATATCCCATATA
B11: XGTACX_site2113 (dsDNA)
DNA 1: AAGATAAAATAATAAAGTACACATATAAATTGAAAA
DNA 2: TTTTCAATTTATATGTGTACTTTATTATTTTATCTT
B12: XGTACX_site8481 (dsDNA)
DNA 1: TCAATTTTTTAATGTTGTACTTTGTAAAAAAAAATA
DNA 2: TATTTTTTTTTACAAAGTACAACATTAAAAAATTGA
B13: XGTACX_site7911 (dsDNA)
DNA 1: TAGCATGATTTGCCTTGTACACAACCGTTTTAATAA
DNA 2: TTATTAAAACGGTTGTGTACAAGGCAAATCATGCTA
B14: XGTACX_site5503 (dsDNA)
DNA 1: TATATATATATAGGTTGTACATTTTGATGTTTACGT
DNA 2: ACGTAAACATCAAAATGTACAACCTATATATATATA
B15: XGTACX_site8080 (dsDNA)
DNA 1: AAGCTTAAAAATGGGGGTACGTCATAGGGATTCAAC
DNA 2: GTTGAATCCCTATGACGTACCCCCATTTTTAAGCTT
B16: XGTACX_site6785 (dsDNA)
DNA 1: ATATATGGAAAGAGTAGTACTATTATAGGGGTGTTA
DNA 2: TAACACCCCTATAATAGTACTACTCTTTCCATATAT
B17: XGTACX_site2117 (dsDNA)
DNA 1: TATAATATATGTATATGTACTTATGTTGAGAAACAT
DNA 2: ATGTTTCTCAACATAAGTACATATACATATATTATA
B18: XGTACX_site1392 (dsDNA)
DNA 1: ATATGTAAAATATGGGGTACGAAGGTAGGTAGGTAA
DNA 2: TTACCTACCTACCTTCGTACCCCATATTTTACATAT
B19: XGTACX_site1737 (dsDNA)
DNA 1: AGATCTATTATTTTTTGTACTTATATATAAACTTAA
DNA 2: TTAAGTTTATATATAAGTACAAAAAATAATAGATCT
B20: XGTACX_site7939 (dsDNA)
DNA 1: GGATTTTTCGAATCATGTACATATTTAATTAAAAAA
DNA 2: TTTTTTAATTAAATATGTACATGATTCGAAAAATCC
B21: XGTACX_site8893 (dsDNA)
DNA 1: ATATATATATATATATGTACATATATATTGTTGATC
DNA 2: GATCAACAATATATATGTACATATATATATATATAT
B22: XGTACX_site150 (dsDNA)
DNA 1: ATATACATATATATATGTACTGAAAAGAAAAGAATT
DNA 2: AATTCTTTTCTTTTCAGTACATATATATATGTATAT
B23: XGTACX_site6588 (dsDNA)
DNA 1: AAAAATTGAATGATGTGTACTTAAAAGAATATAGAA
DNA 2: TTCTATATTCTTTTAAGTACACATCATTCAATTTTT
B24: XGTACX_site2966 (dsDNA)
DNA 1: AAACATATAAATCACGGTACACATTATTGAAAGTGT
DNA 2: ACACTTTCAATAATGTGTACCGTGATTTATATGTTT
B25: XGTACX_site2864 (dsDNA)
DNA 1: CCTATATAATTATAATGTACTTGTAAAAAATATAAC
DNA 2: GTTATATTTTTTACAAGTACATTATAATTATATAGG
B26: XGTACX_site8514 (dsDNA)
DNA 1: AGTATTATATATATATGTACATAATATACATATATA
DNA 2: TATATATGTATATTATGTACATATATATATAATACT
B27: XGTACX_site5309 (dsDNA)
DNA 1: CTATACAATAAAAATTGTACATACATATATGTTATA
DNA 2: TATAACATATATGTATGTACAATTTTTATTGTATAG
B28: XGTACX_site8691 (dsDNA)
DNA 1: AAAAATATTTTGGTTTGTACATATATTTTTACAATA
DNA 2: TATTGTAAAAATATATGTACAAACCAAAATATTTTT
B29: XGTACX_site583 (dsDNA)
DNA 1: ATAATATATATATAGTGTACATTTGAATATATTTGA
DNA 2: TCAAATATATTCAAATGTACACTATATATATATTAT
B30: XGTACX_site8448 (dsDNA)
DNA 1: AGGTTTCATTTAGCATGTACATATTATAAAAATTGT
DNA 2: ACAATTTTTATAATATGTACATGCTAAATGAAACCT
B31: XGTACX_site8657 (dsDNA)
DNA 1: ATTAAGATGTATATATGTACATATTACATACATATA
DNA 2: TATATGTATGTAATATGTACATATATACATCTTAAT
B32: XGTACX_site5139 (dsDNA)
DNA 1: TATATACAGAATATATGTACATATTCATTTTATATT
DNA 2: AATATAAAATGAATATGTACATATATTCTGTATATA

Biological target: T1, AP2-G D1
Test: gcPBM; about 25 ug protein; PBS, 1% milk, 0.2 mg/ml BSA, salmon testes DNA, 0.03% Triton X-100
Conditions: tags: N-terminal GST (pGEX-4T-1), kept; label: surface-attached array probe

First: B1
Second: B2
The binding signal of the first is lower: 11.4 ln median PBM intensity, better of two orientations for the first, 11.5 ln median PBM intensity, better of two orientations for the second.

Going from B3 to B4, the binding signal falls from 11.7 ln median PBM intensity, better of two orientations to 11.5 ln median PBM intensity, better of two orientations.

B5 and B6 are the same in binding signal: 11.8 ln median PBM intensity, better of two orientations for the first, 11.8 ln median PBM intensity, better of two orientations for the second.

Compared with B7, B8 is lower in binding signal: 11.6 ln median PBM intensity, better of two orientations for the first, 11.4 ln median PBM intensity, better of two orientations for the second.

Going from B9 to B10, the binding signal rises from 11.6 ln median PBM intensity, better of two orientations to 11.8 ln median PBM intensity, better of two orientations.

First: B11
Second: B12
The binding signal of the first is higher: 11.8 ln median PBM intensity, better of two orientations for the first, 11.7 ln median PBM intensity, better of two orientations for the second.

Going from B13 to B14, the binding signal falls from 11.7 ln median PBM intensity, better of two orientations to 11.5 ln median PBM intensity, better of two orientations.

B15 and B16 are the same in binding signal: 11.7 ln median PBM intensity, better of two orientations for the first, 11.7 ln median PBM intensity, better of two orientations for the second.

B17 and B18 are the same in binding signal: 11.7 ln median PBM intensity, better of two orientations for the first, 11.7 ln median PBM intensity, better of two orientations for the second.

First: B19
Second: B20
The binding signal of the first is lower: 11.5 ln median PBM intensity, better of two orientations for the first, 11.8 ln median PBM intensity, better of two orientations for the second.

Compared with B21, B22 is lower in binding signal: 11.8 ln median PBM intensity, better of two orientations for the first, 11.4 ln median PBM intensity, better of two orientations for the second.

Compared with B23, B24 is lower in binding signal: 11.8 ln median PBM intensity, better of two orientations for the first, 11.6 ln median PBM intensity, better of two orientations for the second.

Compared with B25, B26 is lower in binding signal: 11.8 ln median PBM intensity, better of two orientations for the first, 11.6 ln median PBM intensity, better of two orientations for the second.

Compared with B27, B28 is higher in binding signal: 11.3 ln median PBM intensity, better of two orientations for the first, 11.5 ln median PBM intensity, better of two orientations for the second.

B29 and B30 are the same in binding signal: 11.6 ln median PBM intensity, better of two orientations for the first, 11.6 ln median PBM intensity, better of two orientations for the second.

B31 and B32 are the same in binding signal: 11.4 ln median PBM intensity, better of two orientations for the first, 11.4 ln median PBM intensity, better of two orientations for the second.
